± gives the standard deviation of the averaged measurements.
B1: library; a variant is named by its letters at N, in order (parent)
chain: GCUGUCACCGAGAAACUGUGAAGUAUAUCUUAAACCUGGGCACUUAAAAGAUAUAUGGAGUUAGUAGUGCAACCUGCUCGGUCUGAUGAGUCCNNNNNNGGACGAAACAGC

Legend:
cyclic di-GMP [1] = variants of: B1; test: FACS-Seq fitted mean relative fluorescence mCherry/BFP without ligand (log10 relative fluorescence); HEK293T; ligand: cyclic di-GMP (c-di-GMP-II aptamer); higher = higher reporter protein expression; settings: ligand present: no
In short: (§1)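 Fluorescence is reported as a normalized fitted mean of sorted-bin read counts. Lentivirally transduced HEK293T libraries (mCherry ribozyme-switch reporter, EF1α-BFP marker) were enriched, treated with or without ligand for 48 h, and sorted into 6 mCherry/BFP bins for MiSeq sequencing of PCR-amplified genomic DNA. The normal fit was on log10(mCherry/BFP), scaled to five spiked-in control ribozymes.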

cyclic di-GMP [2] = variants of: B1; test: normalized RNA/DNA level without ligand (relative to sTRSVctl = 100) (log10 (% of sTRSVctl)); HEK293T; ligand: cyclic di-GMP (c-di-GMP-II aptamer); higher = less ribozyme self-cleavage, higher mRNA level; settings: reporter: mCherry (pCS4076), ligand present: no
In short: (§2)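 Only sequences with at least 100 DNA reads were analyzed, from HEK293T cells transfected with 4 µg per 6-well well of ribozyme switch library plasmids 72 h before RNA extraction with EDTA. Any ligand was added 1 h before transfection. RNA level was defined as RNA over DNA reads, normalized to a spiked-in non-cleaving sequence or to the top sequences, then scaled and log-transformed. The top set was 25 sequences, and the scaling was ×100 followed by log10.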

cyclic di-GMP [3] = variants of: B1; test: FACS-Seq fitted mean relative fluorescence mCherry/BFP with ligand (log10 relative fluorescence); HEK293T; ligand: cyclic di-GMP (c-di-GMP-II aptamer); ligand concentration (+) FACS-Seq: 1 mM; higher = higher reporter protein expression; settings: ligand present: yes
In short: as §1

cyclic di-GMP [4] = variants of: B1; test: normalized RNA/DNA level with ligand (relative to sTRSVctl = 100) (log10 (% of sTRSVctl)); HEK293T; ligand: cyclic di-GMP (c-di-GMP-II aptamer); ligand concentration (+) RNA-Seq: 1 mM; higher = less ribozyme self-cleavage, higher mRNA level; settings: reporter: mCherry (pCS4076), ligand present: yes
In short: as §2

Variant | FACS-Seq fitted mean (log10) (cyclic di-GMP [1]) | normalized RNA/DNA level without ligand (log10) (cyclic di-GMP [2]) | FACS-Seq fitted mean (log10) (cyclic di-GMP [3]) | normalized RNA/DNA level with ligand (log10) (cyclic di-GMP [4])
AUACGA | -0.518 ± 0.09 | 1.46 ± 0.08 | -0.228 ± 0.13 | 1.67 ± 0.14
CGUCCU | -0.313 ± 0.09 | 1.6 ± 0.033 | 0.0379 ± 0.021 | 1.78 ± 0.12
CGUAAU | -0.374 ± 0.0044 | 1.36 ± 0.17 | -0.0343 ± 0.11 | 1.53 ± 0.093
CGUAAA | -0.605 ± 0.042 | 1.23 ± 0.081 | -0.386 ± 0.039 | 1.34 ± 0.11
GUAACG | -0.145 ± 0.033 | 1.678 ± 0.014 | 0.124 ± 0.056 | 1.78 ± 0.14
GUAGAA | -0.503 ± 0.021 | 1.39 ± 0.081 | -0.1892 ± 0.0011 | 1.63 ± 0.1
GUAGAG | 0.0274 ± 0.11 | 1.47 ± 0.073 | 0.252 ± 0.077 | 1.66 ± 0.12
GUAGAU | -0.404 ± 0.035 | 1.55 ± 0.057 | -0.145 ± 0.055 | 1.72 ± 0.08
CUCUAA | -0.433 ± 0.11 | 1.4 ± 0.083 | -0.0646 ± 0.21 | 1.61 ± 0.033
GUCAGG | -1.25 ± 0.11 | 1.74 ± 0.063 | -0.78 ± 0.093 | 1.81 ± 0.087
UUCACU | -0.67 ± 0.15 | 1.73 ± 0.018 | -0.577 ± 0.18 | 1.85 ± 0.1
GUAUGA | -0.487 ± 0.16 | 1.42 ± 0.092 | -0.189 ± 0.072 | 1.67 ± 0.081
CGGUGU | -0.862 ± 0.11 | 1.68 ± 0.02 | -0.65 ± 0.12 | 1.88 ± 0.14
UUAAUG | -0.155 ± 0.022 | 1.6 ± 0.035 | 0.183 ± 0.0019 | 1.79 ± 0.071
AGUAGU | 0.132 ± 0.03 | 1.64 ± 0.066 | 0.367 ± 0.029 | 1.78 ± 0.13
AGUAGG | -1.02 ± 0.098 | 1.63 ± 0.097 | -0.997 ± 0.068 | 1.75 ± 0.049
AGUAGA | -0.549 ± 0.05 | 1.36 ± 0.12 | -0.22 ± 0.075 | 1.56 ± 0.086
CUAAAU | -0.443 ± 0.034 | 1.5 ± 0.1 | -0.0872 ± 0.068 | 1.69 ± 0.044
CUAAAA | -0.3961 ± 0.0027 | 1.35 ± 0.057 | -0.114 ± 0.1 | 1.61 ± 0.075
UUAUAU | -0.127 ± 0.066 | 1.68 ± 0.0031 | 0.0702 ± 0.1 | 1.8 ± 0.081
UGUGAC | 0.123 ± 0.24 | 1.644 ± 0.015 | 0.27 ± 0.01 | 1.79 ± 0.082
UGUGAU | -0.736 ± 0.12 | 1.676 ± 0.012 | -0.5759 ± 0.0014 | 1.81 ± 0.13
CGUCUC | 0.2 ± 0.16 | 1.766 ± 0.015 | 0.3267 ± 0.0019 | 1.87 ± 0.11
CGUCUU | -0.365 ± 0.028 | 1.49 ± 0.033 | -0.103 ± 0.064 | 1.66 ± 0.12

Variant | FACS-Seq fitted mean (log10) (cyclic di-GMP [1]) | normalized RNA/DNA level without ligand (log10) (cyclic di-GMP [2]) | FACS-Seq fitted mean (log10) (cyclic di-GMP [3]) | normalized RNA/DNA level with ligand (log10) (cyclic di-GMP [4])
CGUCUA | -0.152 ± 0.067 | 1.26 ± 0.082 | 0.127 ± 0.011 | 1.45 ± 0.1
CGUCAA | -0.556 ± 0.083 | 1.31 ± 0.093 | -0.352 ± 0.01 | 1.49 ± 0.13
UGUAGU | 0.04 ± 0.16 | 1.66 ± 0.051 | 0.343 ± 0.011 | 1.86 ± 0.12
AGUGUC | -0.2695 ± 0.0013 | 1.62 ± 0.071 | 0.0884 ± 0.21 | 1.76 ± 0.052
GUAAGG | -0.295 ± 0.022 | 1.59 ± 0.078 | 0.0239 ± 0.038 | 1.74 ± 0.067
GUAAGA | -0.617 ± 0.027 | 1.46 ± 0.061 | -0.308 ± 0.026 | 1.61 ± 0.13
UUAUCC | -0.109 ± 0.15 | 1.76 ± 0.023 | 0.218 ± 0.082 | 1.86 ± 0.084
CUCAUA | -0.575 ± 0.039 | 1.43 ± 0.079 | -0.298 ± 0.012 | 1.65 ± 0.14
GUCGGA | -0.0744 ± 0.052 | 1.51 ± 0.073 | 0.242 ± 0.025 | 1.7 ± 0.071
CUAAUA | -0.533 ± 0.025 | 1.39 ± 0.066 | -0.316 ± 0.011 | 1.6 ± 0.12
CUAAUG | -0.485 ± 0.042 | 1.49 ± 0.13 | -0.179 ± 0.011 | 1.7 ± 0.092
CUAAUU | -0.314 ± 0.073 | 1.537 ± 0.0049 | 0.0103 ± 0.0086 | 1.74 ± 0.081
AUAACG | -0.0695 ± 0.081 | 1.58 ± 0.027 | 0.0722 ± 0.12 | 1.76 ± 0.12
CGUCGA | -0.179 ± 0.073 | 1.58 ± 0.049 | 0.0661 ± 0.0086 | 1.77 ± 0.093
CUAUUA | -0.459 ± 0.052 | 1.38 ± 0.033 | -0.243 ± 0.052 | 1.6 ± 0.064
CUAACU | -0.381 ± 0.006 | 1.59 ± 0.025 | -0.0873 ± 0.0047 | 1.74 ± 0.1
CGUAUA | -0.76 ± 0.11 | 1.3 ± 0.1 | -0.4664 ± 0.0033 | 1.45 ± 0.13
GGUUCC | 0.28 ± 0.17 | 1.8648 ± 0.0011 | 0.396 ± 0.056 | 1.96 ± 0.085
GUACGA | -0.395 ± 0.055 | 1.43 ± 0.046 | -0.0985 ± 0.03 | 1.64 ± 0.077
GUACGC | -0.788 ± 0.17 | 1.77 ± 0.056 | -0.516 ± 0.067 | 1.88 ± 0.091
GUACGG | 0.00232 ± 0.14 | 1.62 ± 0.053 | 0.333 ± 0.011 | 1.77 ± 0.059
AUAGUA | 0.0378 ± 0.13 | 1.5 ± 0.034 | 0.3053 ± 0.00099 | 1.65 ± 0.046
AUAGUU | -0.615 ± 0.079 | 1.539 ± 0.0099 | -0.438 ± 0.02 | 1.73 ± 0.089
GUCCAA | 0.102 ± 0.033 | 1.57 ± 0.052 | 0.317 ± 0.11 | 1.74 ± 0.12

Variant | FACS-Seq fitted mean (log10) (cyclic di-GMP [1]) | normalized RNA/DNA level without ligand (log10) (cyclic di-GMP [2]) | FACS-Seq fitted mean (log10) (cyclic di-GMP [3]) | normalized RNA/DNA level with ligand (log10) (cyclic di-GMP [4])
AUACAU | -0.192 ± 0.015 | 1.62 ± 0.062 | 0.241 ± 0.0042 | 1.78 ± 0.074
AUACAA | -0.183 ± 0.011 | 1.54 ± 0.048 | 0.0162 ± 0.13 | 1.73 ± 0.099
AGUGGG | -0.534 ± 0.12 | 1.69 ± 0.069 | -0.365 ± 0.059 | 1.8 ± 0.062
CGUGGA | -0.426 ± 0.029 | 1.41 ± 0.1 | -0.0424 ± 0.071 | 1.62 ± 0.035
CGUUAA | -0.684 ± 0.057 | 1.22 ± 0.036 | -0.425 ± 0.019 | 1.4 ± 0.14
CGUUAU | -0.444 ± 0.047 | 1.42 ± 0.13 | -0.148 ± 0.06 | 1.61 ± 0.081
GUAUAG | -1.32 ± 0.018 | 1.56 ± 0.12 | -1.05 ± 0.12 | 1.74 ± 0.063
CUACGA | -0.199 ± 0.061 | 1.62 ± 0.038 | 0.0797 ± 0.066 | 1.79 ± 0.086
AUAAAG | -0.485 ± 0.024 | 1.56 ± 0.038 | -0.249 ± 0.071 | 1.73 ± 0.14
GUAAUG | -0.57 ± 0.093 | 1.63 ± 0.061 | -0.481 ± 0.029 | 1.75 ± 0.066
UUAAGA | -0.227 ± 0.096 | 1.613 ± 0.01 | 0.2 ± 0.0086 | 1.76 ± 0.12
UGUAAA | 0.0683 ± 0.13 | 1.72 ± 0.019 | 0.3702 ± 0.0013 | 1.85 ± 0.086
CUCGAA | -0.00262 ± 0.0023 | 1.41 ± 0.12 | 0.32 ± 0.035 | 1.6 ± 0.097
UUCCGU | 0.0201 ± 0.13 | 1.7 ± 0.02 | 0.296 ± 0.053 | 1.83 ± 0.08
CGGUUA | -0.67 ± 0.04 | 1.27 ± 0.12 | -0.411 ± 0.028 | 1.43 ± 0.091
UUAUGA | -0.781 ± 0.045 | 1.63 ± 0.025 | -0.563 ± 0.026 | 1.81 ± 0.12
UUAUGG | -0.0165 ± 0.12 | 1.74 ± 0.053 | 0.213 ± 0.035 | 1.85 ± 0.13
UUAGUG | -0.38 ± 0.014 | 1.625 ± 0.0063 | -0.0431 ± 0.00068 | 1.81 ± 0.091
AUAGAC | -0.109 ± 0.028 | 1.61 ± 0.05 | 0.0802 ± 0.041 | 1.76 ± 0.091
AUAGAA | -0.406 ± 0.06 | 1.39 ± 0.077 | -0.217 ± 0.058 | 1.61 ± 0.093
UGUCCU | -0.0961 ± 0.059 | 1.7541 ± 0.0017 | 0.158 ± 0.027 | 1.89 ± 0.1
CUCGGA | -0.14 ± 0.19 | 1.58 ± 0.076 | 0.203 ± 0.14 | 1.81 ± 0.14
UGUAUA | -0.0844 ± 0.055 | 1.73 ± 0.083 | 0.221 ± 0.027 | 1.87 ± 0.073
UUACUA | -0.111 ± 0.12 | 1.64 ± 0.029 | 0.155 ± 0.095 | 1.77 ± 0.13

From the supplement of paper PMC6757056
